Molecular target: soluble CD4 (UniProt P01730)
Experiment: SPR

Substance	Kd
HIV-1 YU-2 gp120 N279A (natural protein)	34.6 nM
HIV-1 YU-2 gp120 R456A (natural protein)	11.3 nM
HIV-1 YU-2 gp120 S375W/T257S (natural protein)	0.9 nM
HIV-1 YU-2 gp120 N280A (natural protein)	6.8 nM
HIV-1 YU-2 gp120 K282A (natural protein)	11.9 nM
HIV-1 YU-2 gp120 T283A (natural protein)	16.7 nM
HIV-1 YU-2 gp120 A281G (natural protein)	12.3 nM
HIV-1 YU-2 gp120 I420R (natural protein)	24.8 nM
HIV-1 YU-2 gp120 P124A (natural protein)	26.2 nM
HIV-1 YU-2 gp120 T278A (natural protein)	7.3 nM
HIV-1 YU-2 gp120 I423M/N425K/G431E (natural protein)	78.1 nM
